Test results reported in US20190211359A1 (INSTITUTE FOR CANCER RESEARCH D B A THE RESEARCH INSTITUTE …, published 2019).
Substitutions are numbered along the chain they refer to.

B1: DNA-dependent activator of interferon-regulatory factors (DAI), wild-type full-length murine (other, mouse, UniProt Q9QY24 1-411, looked up)
chain: MAEAPVDLSTGDNLEQKILQVLSDDGGPVKIGQLVKKCQVPKKTLNQVLYRLKKEDRVSSPEPATWSIGGAASGDGAPAIPENSSAQPSLDERILRFLEANGPHRALHIAKALGMTTAKEVNPLLYSMRNKHLLSYDGQTWKIYHSRQEGQDIAHSGVTQESPAIICQHNPVNMICQQGANSHISIANSNAIQIGHGNVIVREKACGEPGPRTSHPLPLAWDASAQDMPPVAHGAQYIYMDKSLLQQVQLGHHNEMSLVGDAGKHPSYSFSDSPPEVSTTTADPGASFNMQTFEPGPHPEGDTVQTVHIKSCFLEDATIGNGNKMTIHLRSKGEVMESGDSEEPKKEDTGTSSEATPPRSCQHTPSDSMLPTSELRAMALGDSSPQTTEPVLREHEVQDIESSQDTGLSKQ
notes: also called ZBP1; DLM-1
B2: murine DAI with mutant RHIM domain (amino acids 192-195 IQIG to AAAA) (other, mouse, UniProt Q9QY24 1-411, looked up)
chain: B1 chain with I192A, Q193A, I194A, G195A
notes: also called DAI mutRHIM

Key:
[1] = target: T1, receptor-interacting serine/threonine-protein kinase 3 (RIPK3), murine (mouse, UniProt Q9QZL0 1-486); assay: RIPK3 immunoprecipitated from PR8-infected wild-type MEFs, immunoblot for DAI (FIG. 13A); also seen with re-expressed wild type DAI (FIG. 13D)
T1 construct: Endogenous protein of MEFs, pulled down with anti-RIPK3 antibody; also called RIP3
T1 sequence (Q9QZL0 whole entry): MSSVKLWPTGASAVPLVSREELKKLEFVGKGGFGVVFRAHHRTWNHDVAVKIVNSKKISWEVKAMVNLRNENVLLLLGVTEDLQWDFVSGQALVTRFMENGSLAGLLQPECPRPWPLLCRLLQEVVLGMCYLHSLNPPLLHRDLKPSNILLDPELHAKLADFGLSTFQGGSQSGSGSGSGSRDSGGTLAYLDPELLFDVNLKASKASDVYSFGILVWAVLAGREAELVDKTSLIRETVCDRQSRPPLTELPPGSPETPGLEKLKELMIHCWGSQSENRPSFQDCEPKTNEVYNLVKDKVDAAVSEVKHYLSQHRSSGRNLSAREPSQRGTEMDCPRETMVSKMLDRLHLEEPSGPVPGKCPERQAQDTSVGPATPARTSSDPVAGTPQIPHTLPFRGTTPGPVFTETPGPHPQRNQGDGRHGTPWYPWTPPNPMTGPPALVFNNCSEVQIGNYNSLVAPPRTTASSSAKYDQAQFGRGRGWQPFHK
Experimental: FIGS. 13A through 13F show DAI is required for IAV induced formation of RIPK3-containing necrosome complex. […] In parallel, wild-type (WT), zbp1^{-/-}, and ripk3^{-/-} MEFs were treated with […] and phosphorylated MLKL. […] In parallel, reconstituted cells were treated with TCZ and examined for expression of phosphorylated p MLKL. […] Whole-cell extract (5% input) was examined in parallel for RIPK3, DAI and IAV NS1 proteins.

[2] = target: T1, receptor-interacting …; assay: anti-RIPK3 immunoprecipitation from PR8-infected reconstituted zbp1-/- MEFs, immunoblot (FIG. 13D)

| Binder | binding result [1] | binding result [2] |
| --- | --- | --- |
| B1 | binds | – |
| B2 | – | no binding |
